PMC10786891, “Massively parallel profiling of RNA-targeting CRISPR-Cas13d”
Residue numbers refer to the chain shown, from its start.

T1: EsCas13d, nuclease-dead (Eubacterium siraeum, UniProt B0MS50, R295A;H300A;R849A;H854A)
T1 sequence: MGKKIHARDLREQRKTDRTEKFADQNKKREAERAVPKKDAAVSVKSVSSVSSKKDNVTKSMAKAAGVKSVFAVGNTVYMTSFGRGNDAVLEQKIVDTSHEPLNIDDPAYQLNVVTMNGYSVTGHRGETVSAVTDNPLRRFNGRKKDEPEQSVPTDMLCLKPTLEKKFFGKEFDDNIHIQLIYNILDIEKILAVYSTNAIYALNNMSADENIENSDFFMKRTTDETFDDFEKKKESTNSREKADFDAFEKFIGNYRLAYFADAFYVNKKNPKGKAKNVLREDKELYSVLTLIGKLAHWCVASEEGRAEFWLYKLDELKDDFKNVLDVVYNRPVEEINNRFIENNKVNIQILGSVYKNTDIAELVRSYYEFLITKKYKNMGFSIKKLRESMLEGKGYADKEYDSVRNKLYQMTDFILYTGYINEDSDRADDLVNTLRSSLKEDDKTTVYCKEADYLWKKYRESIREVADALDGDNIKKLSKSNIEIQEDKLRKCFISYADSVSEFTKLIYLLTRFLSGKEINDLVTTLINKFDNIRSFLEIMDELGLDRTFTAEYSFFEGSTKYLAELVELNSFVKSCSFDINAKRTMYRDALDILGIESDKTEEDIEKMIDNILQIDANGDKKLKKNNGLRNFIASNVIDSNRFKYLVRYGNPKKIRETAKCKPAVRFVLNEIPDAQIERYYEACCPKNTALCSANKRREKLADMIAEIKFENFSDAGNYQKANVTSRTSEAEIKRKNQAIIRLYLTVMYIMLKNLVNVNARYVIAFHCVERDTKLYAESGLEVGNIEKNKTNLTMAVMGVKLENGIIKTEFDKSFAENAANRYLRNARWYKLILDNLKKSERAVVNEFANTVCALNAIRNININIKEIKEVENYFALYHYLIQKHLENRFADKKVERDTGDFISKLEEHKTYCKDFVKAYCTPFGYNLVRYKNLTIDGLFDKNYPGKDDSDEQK

B1: target 1 MT 5'PFS CAA 3'PFS CCG (mixed)
RNA 1: CACCCGUGCAAAAAUGCAGGGGUCUAAAACUGAGCGGAUAACCUCUCUAUGG
RNA 2: GGGAAUGGAUCCACAUCUACGAAUUCCAACCAUAGAGAGGUUAUCCGCUCACCGAGAUCGGAAGAGCACACGU
B2: target 1 MT 5'PFS ACU 3'PFS CAU (mixed)
RNA 1: B1 RNA 1
RNA 2: B1 RNA 2 with C27A, A28C, A29U, C53A, G54U
B3: target 1 MT 5'PFS UGC 3'PFS ACA (mixed)
RNA 1: B1 RNA 1
RNA 2: B1 RNA 2 with C27U, A28G, A29C, C52A, G54A
B4: target 1 MT 5'PFS GUA 3'PFS CAG (mixed)
RNA 1: B1 RNA 1
RNA 2: B1 RNA 2 with C27G, A28U, C53A
B5: target 1 MT 5'PFS GCG 3'PFS UUG (mixed)
RNA 1: B1 RNA 1
RNA 2: B1 RNA 2 with C27G, A28C, A29G, C52U, C53U
B6: target 1 MT 5'PFS CAA 3'PFS AUU (mixed)
RNA 1: B1 RNA 1
RNA 2: B1 RNA 2 with C52A, C53U, G54U
B7: target 1 MT 5'PFS UCG 3'PFS UCC (mixed)
RNA 1: B1 RNA 1
RNA 2: B1 RNA 2 with C27U, A28C, A29G, C52U, G54C
B8: target 1 insG 3' of 19,insG 3' of 6 (mixed)
RNA 1: B1 RNA 1
RNA 2: GGGAAUGGAUCCACAUCUACGAAUUCGUACCAUGAGAGAGGUUAUCCGGCUCACCGAGAUCGGAAGAGCACACGU
B9: target 1 MT 5'PFS UGG 3'PFS UUG (mixed)
RNA 1: B1 RNA 1
RNA 2: B1 RNA 2 with C27U, A28G, A29G, C52U, C53U
B10: target 1 MT 5'PFS GUA 3'PFS CAC (mixed)
RNA 1: B1 RNA 1
RNA 2: B1 RNA 2 with C27G, A28U, C53A, G54C
B11: target 1 MT 5'PFS GCG 3'PFS UUU (mixed)
RNA 1: B1 RNA 1
RNA 2: B1 RNA 2 with C27G, A28C, A29G, C52U, C53U, G54U
B12: target 1 MT 5'PFS UAG 3'PFS CUG (mixed)
RNA 1: B1 RNA 1
RNA 2: B1 RNA 2 with C27U, A29G, C53U
B13: target 1 MT 5'PFS UCC 3'PFS CCU (mixed)
RNA 1: B1 RNA 1
RNA 2: B1 RNA 2 with C27U, A28C, A29C, G54U
B14: target 1 MT 5'PFS UCG 3'PFS UCA (mixed)
RNA 1: B1 RNA 1
RNA 2: B1 RNA 2 with C27U, A28C, A29G, C52U, G54A
B15: target 1 insG 3' of 22,insU 3' of 2 (mixed)
RNA 1: B1 RNA 1
RNA 2: B8 RNA 2 with C31G, A32C, U33A, G34U, G49C, C50U, U51C, C52U
B16: target 1 MT 5'PFS GUU 3'PFS AAC (mixed)
RNA 1: B1 RNA 1
RNA 2: B1 RNA 2 with C27G, A28U, A29U, C52A, C53A, G54C
B17: target 1 MT 5'PFS UGG 3'PFS UUA (mixed)
RNA 1: B1 RNA 1
RNA 2: B1 RNA 2 with C27U, A28G, A29G, C52U, C53U, G54A
B18: target 1 MT 5'PFS AGA 3'PFS AAC (mixed)
RNA 1: B1 RNA 1
RNA 2: B1 RNA 2 with C27A, A28G, C52A, C53A, G54C
B19: target 1 MT 5'PFS GUA 3'PFS CAA (mixed)
RNA 1: B1 RNA 1
RNA 2: B1 RNA 2 with C27G, A28U, C53A, G54A
B20: target 1 insU 3' of 18,insU 3' of 12 (mixed)
RNA 1: B1 RNA 1
RNA 2: B8 RNA 2 with G34A, A35U, A44U, U45A, C46U, G48C
B21: target 1 MT 5'PFS UGG 3'PFS UUU (mixed)
RNA 1: B1 RNA 1
RNA 2: B1 RNA 2 with C27U, A28G, A29G, C52U, C53U, G54U
B22: target 1 MT 5'PFS GCG 3'PFS UUC (mixed)
RNA 1: B1 RNA 1
RNA 2: B1 RNA 2 with C27G, A28C, A29G, C52U, C53U, G54C
B23: target 1 MT 5'PFS UGC 3'PFS ACU (mixed)
RNA 1: B1 RNA 1
RNA 2: B1 RNA 2 with C27U, A28G, A29C, C52A, G54U
B24: target 1 MT 5'PFS ACG 3'PFS CGU (mixed)
RNA 1: B1 RNA 1
RNA 2: B1 RNA 2 with C27A, A28C, A29G, C53G, G54U
B25: target 1 MT 5'PFS AGA 3'PFS AAG (mixed)
RNA 1: B1 RNA 1
RNA 2: B1 RNA 2 with C27A, A28G, C52A, C53A
B26: target 1 MT 5'PFS AGA 3'PFS AAU (mixed)
RNA 1: B1 RNA 1
RNA 2: B1 RNA 2 with C27A, A28G, C52A, C53A, G54U
B27: target 1 insA 3' of 13,insA 3' of 4 (mixed)
RNA 1: B1 RNA 1
RNA 2: B8 RNA 2 with G34A, A35G, G36A, A37G, G38A, A39G, G40A, G49C, C50A
B28: target 1 MT 5'PFS CAA 3'PFS CCC (mixed)
RNA 1: B1 RNA 1
RNA 2: B1 RNA 2 with G54C
B29: target 1 MT 5'PFS UCC 3'PFS CCG (mixed)
RNA 1: B1 RNA 1
RNA 2: B1 RNA 2 with C27U, A28C, A29C
B30: target 1 MT 5'PFS UGC 3'PFS ACG (mixed)
RNA 1: B1 RNA 1
RNA 2: B1 RNA 2 with C27U, A28G, A29C, C52A
B31: target 1 MT 5'PFS CAA 3'PFS AAA (mixed)
RNA 1: B1 RNA 1
RNA 2: B1 RNA 2 with C52A, C53A, G54A
B32: target 1 MT 5'PFS ACG 3'PFS CGG (mixed)
RNA 1: B1 RNA 1
RNA 2: B1 RNA 2 with C27A, A28C, A29G, C53G
B33: target 1 MT 5'PFS UAG 3'PFS CUC (mixed)
RNA 1: B1 RNA 1
RNA 2: B1 RNA 2 with C27U, A29G, C53U, G54C
B34: target 1 MT 5'PFS GCG 3'PFS UUA (mixed)
RNA 1: B1 RNA 1
RNA 2: B1 RNA 2 with C27G, A28C, A29G, C52U, C53U, G54A
B35: target 1 MT 5'PFS AAC 3'PFS UUC (mixed)
RNA 1: B1 RNA 1
RNA 2: B1 RNA 2 with C27A, A29C, C52U, C53U, G54C
B36: target 1 MT 5'PFS UAG 3'PFS CUA (mixed)
RNA 1: B1 RNA 1
RNA 2: B1 RNA 2 with C27U, A29G, C53U, G54A
B37: target 1 MT 5'PFS GUA 3'PFS CAU (mixed)
RNA 1: B1 RNA 1
RNA 2: B1 RNA 2 with C27G, A28U, C53A, G54U
B38: target 1 MT 5'PFS CAA 3'PFS AAC (mixed)
RNA 1: B1 RNA 1
RNA 2: B1 RNA 2 with C52A, C53A, G54C

Biological target: T1, EsCas13d, nuclease-dead
Test: crRNA (strand 1, pre-loaded); Mg2+; 40 mM Tris-HCl pH 7.5, 150 mM NaCl, 6 mM MgCl2, 1 mM DTT, 0.1% Tween-20, 0.2 mg/ml BSA; 25 C; 10 min per concentration, then washed
Settings: tags: His6-TwinStrep-SUMO cleaved; N-terminal SNAP kept (SNAP-Surface 488); label: 3' end held by stalled T7 RNA polymerase

Binder	Kd [nM]
B1	24 ± 6.5
B2	~80
B3	23.5 ± 8.5
B4	17.6 ± 2.25
B5	5.38 ± 0.505
B6	9.8 ± 3.5
B7	24.5 ± 6.5
B8	76 ± 9
B9	85 ± 23
B10	16.9 ± 2.35
B11	7.85 ± 1
B12	22 ± 5
B13	~15
B14	38.5 ± 13.5
B15	29.7 ± 2.7
B16	52 ± 19
B17	48.5 ± 10.5
B18	~90
B19	19.6 ± 2.3

Binder	Kd [nM]
B20	26.1 ± 1.7
B21	59 ± 20.5
B22	10.8 ± 2.8
B23	10.8 ± 2.45
B24	~34
B25	~65.5
B26	61 ± 22
B27	3.4 ± 0.5
B28	~30.5
B29	18 ± 5
B30	16.2 ± 4.65
B31	43 ± 18
B32	57 ± 18
B33	29.5 ± 12
B34	9.05 ± 1.55
B35	14.1 ± 3.9
B36	22.5 ± 4.5
B37	12 ± 1.15
B38	~27.5
